Here are results for 1 molecule from patent US20210063414A1, “METHODS FOR PREVENTING AND/OR TREATING BONE LOSS CONDITIONS BY MODULATING IRISIN” (Dana-Farber Cancer Institute, Inc., priority 2018, published 2021).

Common to all, as to assay: Crosslinking/co-immunoprecipitation/mass spectrometry (TMT quantitative proteomics) to identify irisin receptors
Type in all cases: binding

The target of experiment [1] is T1, MLO-Y4 cell surface proteins (Mus musculus, UniProt P16675).
T1 construct: endogenous in cells; host or cells: MLO-Y4
T1 sequence (P16675 24-474): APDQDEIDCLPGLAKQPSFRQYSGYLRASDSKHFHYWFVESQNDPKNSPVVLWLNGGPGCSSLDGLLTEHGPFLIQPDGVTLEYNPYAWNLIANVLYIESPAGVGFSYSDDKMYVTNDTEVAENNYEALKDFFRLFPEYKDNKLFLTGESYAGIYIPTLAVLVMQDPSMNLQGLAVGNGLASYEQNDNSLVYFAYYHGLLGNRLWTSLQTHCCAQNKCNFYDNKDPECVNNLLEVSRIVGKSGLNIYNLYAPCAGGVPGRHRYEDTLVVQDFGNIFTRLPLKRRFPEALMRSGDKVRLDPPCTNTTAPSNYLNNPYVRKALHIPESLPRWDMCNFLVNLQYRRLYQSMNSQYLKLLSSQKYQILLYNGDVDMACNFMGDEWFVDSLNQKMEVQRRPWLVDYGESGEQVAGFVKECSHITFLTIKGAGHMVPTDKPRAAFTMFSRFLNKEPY
The conditions noted are these: co-precipitated protein Ctsa (PPGB_MOUSE). As for the experimental part: (§1) MLO-Y4 cells were seeded on 30×150 mm type-I collagen coated dishes as described in cell culture experiment. At 60% cell density, medium was switched to FreeStyle™ 293 Expression medium. After 4 hours incubation, the cells were chilled on ice for 10 minutes, followed by treatment of 10 nM his-tag irisin or his-tag adipsin for 20 minutes. The cells were then incubated with 1.5 mM DTSSP for 30 minutes on ice to do cross-linking, after washing with 15 ml cold PBS twice. The cross-linking was quenched by addition of a final concentration of 20 mM Tris-pH 7.5. The cells were then harvested and homogenized in 1 ml RIPA buffer containing proteaseinhibitor cocktailand phosphatase-inhibitor cocktail. Whole-cell lysates were homogenized by 10 times passages through a 22G needle fitted to a 3 ml syringe. Homogenized samples were rotated gently in cold room for 20 minutes followed by 15,000×g centrifugation for 10 minutes. After addition of a final concentration of 10 mM imidazole, supernatants were incubated with 100 μl Ni-NTA agarose for 1 hour. After centrifugation at 500×g for 1 minute, the supernatants were aspirated and 1 ml cold RIPA buffer containing 10 mM imidazole were added to the agarose. After 10 minutes rotation in cold room, the supernatants were aspirated and 1 ml cold RIPA buffer containing 30 mM imidazole were added to the agarose. After repeating the washing 3 times, 0.8 ml RIPA buffer containing 250 mM imidazole was added and the agarose was gently rotated in a cold room for 20 minutes. After centrifugation at 1000×g for 2 minutes, the supernatants were transferred to 1.5 ml tube and incubated with 100 μl 0.2% sodium deoxycholate and 100 μl 10% trichloroacetic acid in ice for 1 hour. After centrifugation at 12,000×g for 10 minutes at 4° C., the supernatants were removed and 1 ml cold acetone was added to the pellets followed by vortexing for 10 seconds. After one more washing with cold acetone, the pellets were dried at 37° C., and 39 μl PBS and 13 μl 4×NuPAGE LDS were added to the pellets with a final concentration of 5 mM DTT. Solubilized proteins were incubated at 65° C. for 20 minutes followed by incubation with a final concentration of 14 mM iodoacetamide for 45 minutes in the dark. 38 μl samples were loaded to 4-12% gradient SDS-PAGE for separation followed by Coomassie Blue staining. The gels were submitted to quantitative proteomics.
(§2) For in-gel digestions, gels were stained with Coomassie Blue and were excised into 8 equal segments for control and irisin lanes. Gel pieces were destained and dehydrated with 100% acetonitrile, vacuumed dried, and digested in 25 mM HEPES (pH 8.5) with 500 ng sequencing grade trypsin (Promega) and incubated for an overnight at 37° C. (Shevchenko et al. (1996) Anal. Chem. 68:850-858). Digests were treated with 1% formic acid and purified using C18 Stage-Tips as previously described (Rappsilber et al. (2007) Nat. Protoc. 2:1896-1906). Peptides were eluted with 70% acetonitrile and 1% formic acid, then dried using a speedvac. Isobaric labeling of digested peptides was accomplished using 6-plex tandem mass tag (TMT) reagents (Thermo Fisher Scientific, Rockford, Ill.). Reagents, 5.0 mg, were dissolved in 252 μl acetonitrile (ACN) and 5 μl of the solution was added to the digested peptides dissolved in 25 μl of 200 mM HEPES, pH 8.5. After 1 hour at room temperature, the reaction was quenched by adding 1 μl of 5% hydroxylamine. Labeled peptides were combined and acidified prior to C18 Stage-Tips desalting.
(§3) All LC-MS/MS experiments were performed on an Orbitrap Fusion™ Lumos mass spectrometer (Thermo Fisher Scientific, San Jose, Calif., USA) coupled with a Proxeon EASY-nLC™ 1200 LC pump (Thermo Fisher Scientific). Peptides were separated on a 100 μm inner diameter microcapillary column packed with 35 cm of Accucore™ C18 resin (1.8 μm, 100 Å, Thermo Fisher Scientific). […]

For experiment [2], the target named is T2, MLO-Y4 cell surface proteins (Mus musculus, UniProt Q6NWW9).
T2 construct: endogenous in cells; host or cells: MLO-Y4
T2 sequence (Q6NWW9 whole entry): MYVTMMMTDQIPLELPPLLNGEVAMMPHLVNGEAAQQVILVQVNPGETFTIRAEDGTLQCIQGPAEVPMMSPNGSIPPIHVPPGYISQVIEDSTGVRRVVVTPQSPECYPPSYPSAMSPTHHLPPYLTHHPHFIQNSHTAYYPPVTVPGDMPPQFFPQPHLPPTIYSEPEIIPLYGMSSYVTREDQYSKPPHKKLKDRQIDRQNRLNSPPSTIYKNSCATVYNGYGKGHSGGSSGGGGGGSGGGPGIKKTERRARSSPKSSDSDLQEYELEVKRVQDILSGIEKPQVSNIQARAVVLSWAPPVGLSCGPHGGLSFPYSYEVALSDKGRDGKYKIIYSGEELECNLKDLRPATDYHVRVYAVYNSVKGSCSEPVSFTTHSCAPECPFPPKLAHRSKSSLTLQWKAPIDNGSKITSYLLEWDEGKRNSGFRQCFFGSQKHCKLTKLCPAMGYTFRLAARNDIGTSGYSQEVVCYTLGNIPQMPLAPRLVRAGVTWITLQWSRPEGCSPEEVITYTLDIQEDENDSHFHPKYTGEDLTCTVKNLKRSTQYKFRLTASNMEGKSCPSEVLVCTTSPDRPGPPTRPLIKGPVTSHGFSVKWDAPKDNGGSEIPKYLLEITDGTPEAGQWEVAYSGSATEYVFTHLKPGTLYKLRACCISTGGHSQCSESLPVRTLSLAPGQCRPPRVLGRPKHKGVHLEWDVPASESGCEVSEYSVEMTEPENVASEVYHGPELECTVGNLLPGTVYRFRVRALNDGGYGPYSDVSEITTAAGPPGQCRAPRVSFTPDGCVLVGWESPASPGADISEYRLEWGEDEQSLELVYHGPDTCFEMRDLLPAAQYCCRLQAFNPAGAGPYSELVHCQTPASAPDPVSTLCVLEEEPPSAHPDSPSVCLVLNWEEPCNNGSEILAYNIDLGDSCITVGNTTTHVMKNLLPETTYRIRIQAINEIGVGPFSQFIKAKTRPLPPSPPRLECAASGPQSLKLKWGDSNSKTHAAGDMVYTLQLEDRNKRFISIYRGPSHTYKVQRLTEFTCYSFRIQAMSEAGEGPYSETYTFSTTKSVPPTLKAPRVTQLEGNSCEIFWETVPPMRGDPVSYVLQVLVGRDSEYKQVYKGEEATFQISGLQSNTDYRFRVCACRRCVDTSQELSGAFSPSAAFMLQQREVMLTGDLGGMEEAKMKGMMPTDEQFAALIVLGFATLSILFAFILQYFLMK
The conditions noted are these: TMT ratio, Fndc3b Fibronectin type III domain-containing protein 3B. As for the experimental part: as §1, §2, §3

In experiment [3] the target is T3, MLO-Y4 cell surface proteins (Mus musculus, UniProt Q6ZPE2).
T3 construct: endogenous in cells; host or cells: MLO-Y4
T3 sequence (Q6ZPE2 whole entry): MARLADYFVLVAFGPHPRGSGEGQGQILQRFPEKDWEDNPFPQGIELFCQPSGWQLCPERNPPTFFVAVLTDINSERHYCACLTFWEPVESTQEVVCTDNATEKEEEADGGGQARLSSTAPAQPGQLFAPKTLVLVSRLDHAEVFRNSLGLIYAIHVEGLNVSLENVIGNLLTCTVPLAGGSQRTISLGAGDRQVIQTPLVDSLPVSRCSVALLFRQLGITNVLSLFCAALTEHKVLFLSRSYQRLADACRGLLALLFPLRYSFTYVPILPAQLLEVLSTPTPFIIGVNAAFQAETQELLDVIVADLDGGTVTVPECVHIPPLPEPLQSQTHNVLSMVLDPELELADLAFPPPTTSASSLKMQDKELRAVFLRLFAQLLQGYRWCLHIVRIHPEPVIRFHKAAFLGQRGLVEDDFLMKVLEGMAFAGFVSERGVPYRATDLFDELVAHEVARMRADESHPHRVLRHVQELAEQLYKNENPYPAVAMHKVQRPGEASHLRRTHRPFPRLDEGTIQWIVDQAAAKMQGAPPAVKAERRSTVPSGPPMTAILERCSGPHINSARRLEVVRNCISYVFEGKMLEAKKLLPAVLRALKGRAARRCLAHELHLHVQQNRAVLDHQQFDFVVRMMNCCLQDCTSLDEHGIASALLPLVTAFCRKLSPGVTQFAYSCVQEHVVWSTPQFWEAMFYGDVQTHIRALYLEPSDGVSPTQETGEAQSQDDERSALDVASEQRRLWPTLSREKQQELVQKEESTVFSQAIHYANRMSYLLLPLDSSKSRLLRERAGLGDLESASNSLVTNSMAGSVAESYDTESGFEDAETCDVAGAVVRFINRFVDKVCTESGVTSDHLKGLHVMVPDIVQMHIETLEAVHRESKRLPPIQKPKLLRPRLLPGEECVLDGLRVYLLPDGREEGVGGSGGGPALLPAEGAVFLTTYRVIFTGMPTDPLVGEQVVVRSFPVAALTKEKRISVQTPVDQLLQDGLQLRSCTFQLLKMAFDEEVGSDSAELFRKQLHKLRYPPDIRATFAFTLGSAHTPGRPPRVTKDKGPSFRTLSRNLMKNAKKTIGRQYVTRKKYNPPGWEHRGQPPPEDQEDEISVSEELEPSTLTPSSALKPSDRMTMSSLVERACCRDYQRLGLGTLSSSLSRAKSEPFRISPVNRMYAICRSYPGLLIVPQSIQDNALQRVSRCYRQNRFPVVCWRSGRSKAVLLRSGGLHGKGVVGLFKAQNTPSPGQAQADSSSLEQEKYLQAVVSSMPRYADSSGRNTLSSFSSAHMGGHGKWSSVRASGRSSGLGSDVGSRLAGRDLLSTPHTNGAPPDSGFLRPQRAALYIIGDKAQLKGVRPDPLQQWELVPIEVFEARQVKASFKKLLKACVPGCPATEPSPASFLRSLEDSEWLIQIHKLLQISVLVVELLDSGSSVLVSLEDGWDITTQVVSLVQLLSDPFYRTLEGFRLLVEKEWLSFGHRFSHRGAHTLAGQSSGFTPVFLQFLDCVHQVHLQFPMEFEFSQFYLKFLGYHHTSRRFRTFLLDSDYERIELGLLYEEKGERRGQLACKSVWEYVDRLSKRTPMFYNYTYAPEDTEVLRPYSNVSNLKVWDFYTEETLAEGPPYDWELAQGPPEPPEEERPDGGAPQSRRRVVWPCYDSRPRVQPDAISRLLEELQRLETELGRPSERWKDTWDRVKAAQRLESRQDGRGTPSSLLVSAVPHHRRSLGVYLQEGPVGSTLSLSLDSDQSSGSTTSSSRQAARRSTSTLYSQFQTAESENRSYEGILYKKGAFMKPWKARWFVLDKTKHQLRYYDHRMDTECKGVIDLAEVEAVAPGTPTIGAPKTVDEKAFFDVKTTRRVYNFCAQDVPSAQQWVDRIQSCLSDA
The conditions noted are these: co-precipitated protein Sbf1 (MTMR5_MOUSE). How it is done: as §1, §2, §3

Experiment [4] addresses T4, MLO-Y4 cell surface proteins (Mus musculus, UniProt Q99KR7).
T4 construct: endogenous in cells; host or cells: MLO-Y4
The conditions noted are these: co-precipitated protein Ppif (PPIF_MOUSE). How it is done: as §1, §2, §3

T4 sequence (Q99KR7 30-206): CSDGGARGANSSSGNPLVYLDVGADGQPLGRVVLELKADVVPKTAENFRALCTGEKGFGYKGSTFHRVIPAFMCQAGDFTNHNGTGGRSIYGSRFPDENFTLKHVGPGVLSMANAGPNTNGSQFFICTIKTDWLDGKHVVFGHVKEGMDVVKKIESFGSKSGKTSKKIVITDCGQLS

B1: irisin: secreted cleaved form of FNDC5; recombinant human/mouse irisin with C-terminal his tag produced in HEK293 cells (protein)
chain: DSPSAPVNVTVRHLKANSAVVSWDVLEDEVVIGFAISQQKKDVRMLRFIQEVNTTTRSCALWDLEEDTEYIVHVQAISIQGQSPASEPVLFKTPREAEKMASKNKDEVTMKE
modifications: left off: small tags and cut ends
notes: secreted cleaved form of FNDC5; recombinant human/mouse irisin with C-terminal his tag produced in HEK293 cells
Turning to B1, the TMT signal-to-noise ratio in experiment [1] is recorded as 111.377; in experiment [3], 37.3228; in experiment [4], 49.7858. For the same molecule, the “irisin/adipsin TMT signal-to-noise ratio” value in experiment [1] came out at 0.311; in experiment [3], 0.525; in experiment [4], 0.199. For the same molecule, in experiment [2], the irsin/adipsin was 2.88.
